According to PMC8789047 (Nucleic Acids Research, 2021):

B1: Strep II-ECD (natural protein)
chain: MEETMKLATMEDTVEYCLFLIPDESRDSDKHKEILQKYIERIITRFAPMLVPYIWQNQPFNLKYKPGKGGVPAHMFGVTKFGDNIEDEWFIVYVIKQITKEFPELVARIEDNDGEFLLIEAADFLPKWLDPENSTNRVFFCHGELCIIPAPRKSGAESWLPTTPPTIPQALNIITAHSEKILASESIRAAVNRRIRGYPEKIQASLHRAHCFLPAGIVAVLKQRPRLVAAAVQAFYLRDPIDLRACRVFKTFLPETRIMTSVTFTKCLYAQLVQQRFVPDRRSGYRLPPPSDPQYRAHELGMKLAHGFEILCSKCSPHFSDCKKSLVTASPLWASFLESLKKNDYFKGLIEGSAQYRERLEMAENYFQLSVDWPESSLAMSPGEEILTLLQTIPFDIEDLKKEAANLPPEDDDQWLDLSPDQLDQLLQEAVGKKESESVSKEEKEQNYDLTEVSESMKAFISKVSTHKGAELPREPSEAPITFDADSFLNYFDKILGPRPNESDSDDLDDEDFECLDSDDDLDFETHEPGEEASLKGTLDNLKSYMAQMDQELAHTCISKSFTTRNQVEPVSQTTDNNSDEEDSGTGESVMAPVDVDLNLVSNILESYSSQAGLAGPASNLLQSMGVQLPDNTDHRPTSKPTKN
B2: AAR2-His (natural protein)
chain: MAAVQMDPELAKRLFFEGATVVILNMPKGTEFGIDYNSWEVGPKFRGVKMIPPGIHFLHYSSVDKANPKEVGPRMGFFLSLHQRGLTVLRWSTLREEVDLSPAPESEVEAMRANLQELDQFLGPYPYATLKKWISLTNFISEATVEKLQPENRQICAFSDVLPVLSMKHTKDRVGQNLPRCGIECKSYQEGLARLPEMKPRAGTEIRFSELPTQMFPEGATPAEITKHSMDLSYALETVLNKQFPSSPQDVLGELQFAFVCFLLGNVYEAFEHWKRLLNLLCRSEAAMMKHHTLYINLISILYHQLGEIPADFFVDIVSQDNFLTSTLQVFFSSACSIAVDATLRKKAEKFQAHLTKKFRWDFAAEPEDCAPVVVELPEGIEMG
B3: 6xHis-AAR2-Strep II (natural protein)
chain: MAAVQMDPELAKRLFFEGATVVILNMPKGTEFGIDYNSWEVGPKFRGVKMIPPGIHFLHYSSVDKANPKEVGPRMGFFLSLHQRGLTVLRWSTLREEVDLSPAPESEVEAMRANLQELDQFLGPYPYATLKKWISLTNFISEATVEKLQPENRQICAFSDVLPVLSMKHTKDRVGQNLPRCGIECKSYQEGLARLPEMKPRAGTEIRFSELPTQMFPEGATPAEITKHSMDLSYALETVLNKQFPSSPQDVLGELQFAFVCFLLGNVYEAFEHWKRLLNLLCRSEAAMMKHHTLYINLISILYHQLGEIPADFFVDIVSQDNFLTSTLQVFFSSACSIAVDATLRKKAEKFQAHLTKKFRWDFAAEPEDCAPVVVELPEGIEMG

Columns and labels:
RUVBL2 [1] = biological target: T1, RUVBL2 (human, UniProt Q9Y230 1-463); assay: pull-down
RUVBL1–RUVBL2 complex = RUVBL1–RUVBL2 complex (human, UniProt Q9Y265;Q9Y230); assay: pull-down
RUVBL1 [2] = biological target: T2, RUVBL1 (human, UniProt Q9Y265 1-456); assay: pull-down
PRPF8-Flag = PRPF8-Flag (human, UniProt Q6P2Q9 1-2335); assay: pull-down
Strep II-ECD = biological target: B1; assay: pull-down
[3] = biological target: His-RUVBL1–RUVBL2 complex (human, UniProt Q9Y265;Q9Y230); assay: pull-down
AAR2-His = biological target: B2; assay: pull-down
6xHis-AAR2-Strep II = biological target: B3; assay: pull-down
RUVBL2 [4] = biological target: T1, RUVBL2; assay: cross-linking
RUVBL1 [5] = biological target: T2, RUVBL1; assay: cross-linking

| binding result (RUVBL2 [1]) | binding result (RUVBL1–RUVBL2 complex) | binding result (RUVBL1 [2]) | binding result (PRPF8-Flag) | binding result (Strep II-ECD) | Binder | further results |
| --- | --- | --- | --- | --- | --- | --- |
| binds | binds | binds |  |  | GST-ZNHIT2-C (domain or fragment) GPVSPLVRFQLPNVLFAYAHTLALYHGGDDALLSDFCATLLGVSGALGAQQVFASAEEALQAAAHVLEAGEHPPGPLGTRGAMHEVARILLGEGPTNQKGYTLAALGDLAQTLGRARKQAVAREERDHLYRARKKCQFLLAWTNENEAALTPLALDCARAHQAHAVVAEEV |  |
|  | binds |  | binds |  | B1 |  |
|  |  |  |  | binds | B2 |  |
|  | binds |  |  |  | B3 |  |
| binds | binds | binds |  | binds | GST-ZNHIT2ΔC (domain or fragment) MEPAGPCGFCPAGEVQPARYTCPRCNAPYCSLRCYRTHGTCAENFYRDQVLGELRGCSAPPSRLASALRRLRQQRETEDEPGEAGLSSGPAPGGLSGLWERLAPGEKAAFERLLSRGEAGRLLPPWRPWWWNRGAGPQLLEELDNAPGSDAAELELAPARTPPDSVKDASAAEPAAAERVLGDVPGACTPVVPTRIPAIVSLSRGPVSPLVRFQLPNVLFAYAHTLALYHGGDDALLSDFCATLLGVSGALGAQQVFASAEEALQAAAHVLEAGEHPPGPLGTRGAMHEVARILLGEGPTNQKGYTLAALGDLAQTLGRARKQAVAREERDHLYRARKKCQFLLAWTNENEAALTPLALDCARAHQAHAVVAEEV | binding result [3]: binds |
|  |  |  | binds | binds | ZNHIT2ΔC (domain or fragment) MEPAGPCGFCPAGEVQPARYTCPRCNAPYCSLRCYRTHGTCAENFYRDQVLGELRGCSAPPSRLASALRRLRQQRETEDEPGEAGLSSGPAPGGLSGLWERLAPGEKAAFERLLSRGEAGRLLPPWRPWWWNRGAGPQLLEELDNAPGSDAAELELAPARTPPDSVKDASAAEPAAAERVLGDVPGACTPVVPTRIPAIVSLSRGPVSPLVRFQLPNVLFAYAHTLALYHGGDDALLSDFCATLLGVSGALGAQQVFASAEEALQAAAHVLEAGEHPPGPLGTRGAMHEVARILLGEGPTNQKGYTLAALGDLAQTLGRARKQAVAREERDHLYRARKKCQFLLAWTNENEAALTPLALDCARAHQAHAVVAEEV | binding result (AAR2-His): binds; binding result (6xHis-AAR2-Strep II): binds; binding result (RUVBL2 [4]): binds; binding result (RUVBL1 [5]): binds |
